According to article PMC10397247:
Values belong to the binder of their own block, whether it stands above or below them.

Legend:
[1] = molecular target: T1, 4H4001-bH; assay: two-hybrid library CCNG1;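 note: natural log of median RNA to DNA barcode read ratio; higher means stronger binding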
T1 chain: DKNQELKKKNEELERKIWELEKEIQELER

[2] = molecular target: T2, 4H908-bH; assay: two-hybrid library CCNG1;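 note: natural log of median RNA to DNA barcode read ratio; higher means stronger binding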
T2 chain: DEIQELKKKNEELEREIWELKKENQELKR

[3] = molecular target: T3, 4H4073-bH; assay: two-hybrid library CCNG1;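 note: natural log of median RNA to DNA barcode read ratio; higher means stronger binding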
T3 chain: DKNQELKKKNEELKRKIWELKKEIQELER

[4] = molecular target: T4, 4H3782-bH; assay: two-hybrid library CCNG1;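 note: natural log of median RNA to DNA barcode read ratio; higher means stronger binding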
T4 chain: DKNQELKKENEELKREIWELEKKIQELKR

[5] = molecular target: T5, 4H457-bH; assay: two-hybrid library CCNG1;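 note: natural log of median RNA to DNA barcode read ratio; higher means stronger binding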
T5 chain: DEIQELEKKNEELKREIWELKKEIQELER

[6] = molecular target: T6, 4H575-bH; assay: two-hybrid library CCNG1;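 note: natural log of median RNA to DNA barcode read ratio; higher means stronger binding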
T6 chain: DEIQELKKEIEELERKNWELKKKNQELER

[7] = molecular target: T7, 4H3926-bH; assay: two-hybrid library CCNG1
T7 chain: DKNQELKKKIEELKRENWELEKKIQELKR

[8] = molecular target: T8, 4H918-bH; assay: two-hybrid library CCNG1
T8 chain: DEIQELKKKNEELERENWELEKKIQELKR

[9] = molecular target: T9, 4H454-bH; assay: two-hybrid library CCNG1
T9 chain: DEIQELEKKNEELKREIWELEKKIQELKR

[10] = molecular target: T10, 4H3354-bH; assay: two-hybrid library CCNG1
T10 chain: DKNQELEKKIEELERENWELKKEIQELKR

[11] = molecular target: T11, 4H3855-bH; assay: two-hybrid library CCNG1
T11 chain: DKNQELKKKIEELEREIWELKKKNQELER

[12] = molecular target: T12, 4H855-bH; assay: two-hybrid library CCNG1
T12 chain: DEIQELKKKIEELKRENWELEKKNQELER

[13] = molecular target: T13, 4H3185-bH; assay: two-hybrid library CCNG1
T13 chain: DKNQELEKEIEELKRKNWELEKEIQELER

[14] = molecular target: T14, 4H3427-bH; assay: two-hybrid library CCNG1
T14 chain: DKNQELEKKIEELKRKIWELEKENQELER

[15] = molecular target: T15, 4H346-bH; assay: two-hybrid library CCNG1
T15 chain: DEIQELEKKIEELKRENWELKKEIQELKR

[16] = molecular target: T16, 4H967-bH; assay: two-hybrid library CCNG1
T16 chain: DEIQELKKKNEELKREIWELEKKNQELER

[17] = molecular target: T17, 4H568-bH; assay: two-hybrid library CCNG1
T17 chain: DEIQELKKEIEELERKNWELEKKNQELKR

[18] = molecular target: T18, 4H72-bH; assay: two-hybrid library CCNG1
T18 chain: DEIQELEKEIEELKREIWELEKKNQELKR

[19] = molecular target: T19, 4H953-bH; assay: two-hybrid library CCNG1
T19 chain: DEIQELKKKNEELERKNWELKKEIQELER

[20] = molecular target: T20, 4H338-bH; assay: two-hybrid library CCNG1
T20 chain: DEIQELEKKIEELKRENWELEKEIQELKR

[21] = molecular target: T21, 4H687-bH; assay: two-hybrid library CCNG1
T21 chain: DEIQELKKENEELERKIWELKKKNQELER

[22] = molecular target: T22, 4H883-bH; assay: two-hybrid library CCNG1
T22 chain: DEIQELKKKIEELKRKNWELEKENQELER

[23] = molecular target: T23, 4H319-bA; assay: two-hybrid library CCNG1
T23 chain: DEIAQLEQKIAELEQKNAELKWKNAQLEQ

[24] = molecular target: T24, 4H797-bH; assay: two-hybrid library CCNG1
T24 chain: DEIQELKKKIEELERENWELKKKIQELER

[25] = molecular target: T25, 4H3112-bH; assay: two-hybrid library CCNG1
T25 chain: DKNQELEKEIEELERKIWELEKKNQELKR

[26] = molecular target: T26, 4H331-bH; assay: two-hybrid library CCNG1
T26 chain: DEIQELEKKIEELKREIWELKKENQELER

[27] = molecular target: T27, 4H607-bH; assay: two-hybrid library CCNG1
T27 chain: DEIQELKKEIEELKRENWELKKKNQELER

[28] = molecular target: T28, 4H683-bH; assay: two-hybrid library CCNG1
T28 chain: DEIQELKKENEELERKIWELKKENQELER

[29] = molecular target: T29, 4H780-bH; assay: two-hybrid library CCNG1
T29 chain: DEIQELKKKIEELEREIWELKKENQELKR

[30] = molecular target: T30, 4H968-bH; assay: two-hybrid library CCNG1
T30 chain: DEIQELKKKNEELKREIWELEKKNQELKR

[31] = molecular target: T31, 4H717-bH; assay: two-hybrid library CCNG1
T31 chain: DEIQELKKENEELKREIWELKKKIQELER

[32] = molecular target: T32, 4H477-bH; assay: two-hybrid library CCNG1
T32 chain: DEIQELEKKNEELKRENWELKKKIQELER

[33] = molecular target: T33, 4H3057-bH; assay: two-hybrid library CCNG1
T33 chain: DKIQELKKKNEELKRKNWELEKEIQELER

[34] = molecular target: T34, 4H492-bH; assay: two-hybrid library CCNG1
T34 chain: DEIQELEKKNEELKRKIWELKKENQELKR

[35] = molecular target: T35, 4H319-bH; assay: two-hybrid library CCNG1
T35 chain: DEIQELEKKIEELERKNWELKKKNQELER

[36] = molecular target: T36, 4H40-bH; assay: two-hybrid library CCNG1
T36 chain: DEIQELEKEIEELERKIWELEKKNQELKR

[37] = molecular target: T37, 4H2915-bH; assay: two-hybrid library CCNG1
T37 chain: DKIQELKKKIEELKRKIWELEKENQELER

[38] = molecular target: T38, 4H2839-bH; assay: two-hybrid library CCNG1
T38 chain: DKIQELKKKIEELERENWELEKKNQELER

[39] = molecular target: T39, 4H741-bH; assay: two-hybrid library CCNG1
T39 chain: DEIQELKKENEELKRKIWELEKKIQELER

[40] = molecular target: T40, 4H3277-bH; assay: two-hybrid library CCNG1
T40 chain: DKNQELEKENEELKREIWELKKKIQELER

[41] = molecular target: T41, 4H2717-bH; assay: two-hybrid library CCNG1
T41 chain: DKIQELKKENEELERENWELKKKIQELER

[42] = molecular target: T42, 4H348-bH; assay: two-hybrid library CCNG1
T42 chain: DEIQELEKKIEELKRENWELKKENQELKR

[43] = molecular target: T43, 4H3613-bH; assay: two-hybrid library CCNG1
T43 chain: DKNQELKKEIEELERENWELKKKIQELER

[44] = molecular target: T44, 4H3497-bH; assay: two-hybrid library CCNG1
T44 chain: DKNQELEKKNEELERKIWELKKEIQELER

[45] = molecular target: T45, 4H626-bH; assay: two-hybrid library CCNG1
T45 chain: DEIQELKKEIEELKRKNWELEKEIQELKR

[46] = molecular target: T46, 4H3298-bH; assay: two-hybrid library CCNG1
T46 chain: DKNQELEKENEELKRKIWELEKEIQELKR

[47] = molecular target: T47, 4H906-bH; assay: two-hybrid library CCNG1
T47 chain: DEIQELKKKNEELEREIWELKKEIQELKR

[48] = molecular target: T48, 4H3628-bH; assay: two-hybrid library CCNG1
T48 chain: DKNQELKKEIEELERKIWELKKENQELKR

[49] = molecular target: T49, 4H3462-bH; assay: two-hybrid library CCNG1
T49 chain: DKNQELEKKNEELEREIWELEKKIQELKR

[50] = molecular target: T50, 4H591-bH; assay: two-hybrid library CCNG1
T50 chain: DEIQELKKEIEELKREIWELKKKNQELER

[51] = molecular target: T51, O7; assay: two-hybrid library CCNG1
T51 chain: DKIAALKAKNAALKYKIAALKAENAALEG

[52] = molecular target: T52, O5; assay: two-hybrid library CCNG1
T52 chain: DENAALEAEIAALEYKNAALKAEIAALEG

[53] = molecular target: T53, O9; assay: two-hybrid library CCNG1
T53 chain: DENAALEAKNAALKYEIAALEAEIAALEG

[54] = molecular target: T54, O8; assay: two-hybrid library CCNG1
T54 chain: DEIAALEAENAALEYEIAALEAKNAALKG

[55] = molecular target: T55, O4; assay: two-hybrid library CCNG1
T55 chain: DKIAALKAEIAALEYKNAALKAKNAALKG

[56] = molecular target: T56, O6; assay: two-hybrid library CCNG1
T56 chain: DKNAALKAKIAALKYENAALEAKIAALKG

[57] = molecular target: T57, O3; assay: two-hybrid library CCNG1
T57 chain: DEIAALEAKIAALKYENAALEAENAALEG

[58] = molecular target: T58, O8; assay: two-hybrid library CC0; details: mean of both orientations
T58 chain: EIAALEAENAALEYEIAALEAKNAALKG

[59] = molecular target: T59, O6; assay: two-hybrid library CC0; details: mean of both orientations
T59 chain: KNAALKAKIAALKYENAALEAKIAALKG

[60] = molecular target: T60, O4; assay: two-hybrid library CC0; details: mean of both orientations
T60 chain: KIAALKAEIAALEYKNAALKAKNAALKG

[61] = molecular target: T61, O9; assay: two-hybrid library CC0; details: mean of both orientations
T61 chain: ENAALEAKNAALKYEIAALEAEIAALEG

[62] = molecular target: T62, O7; assay: two-hybrid library CC0; details: mean of both orientations
T62 chain: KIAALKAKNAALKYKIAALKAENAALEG

[63] = molecular target: T63, O5; assay: two-hybrid library CC0; details: mean of both orientations
T63 chain: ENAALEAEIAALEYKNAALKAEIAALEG

[64] = molecular target: T64, 4H4001-bN; assay: two-hybrid library CCNG1
T64 chain: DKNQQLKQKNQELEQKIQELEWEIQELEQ

[65] = molecular target: T65, 4H754-bH; assay: two-hybrid library CCNG1
T65 chain: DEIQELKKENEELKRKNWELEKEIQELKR

- interaction score [1]: 0.971
- interaction score [2]: -0.43
- interaction score [3]: 1.57
- interaction score [4]: 0.0549
- interaction score [5]: -1.29
- interaction score [6]: -0.872
- interaction score [7]: 0.42
- interaction score [8]: 0.72
- interaction score [9]: 0.624
- interaction score [10]: 0.156
- interaction score [11]: 0.754
- interaction score [12]: -2.78
- interaction score [13]: -0.575
- interaction score [14]: 1.07
- interaction score [15]: 0.584
- interaction score [16]: 1.34
- interaction score [17]: -0.443
- interaction score [18]: 0.428
- interaction score [19]: -0.641
- interaction score [20]: 1.72
- interaction score [21]: -0.713
- interaction score [22]: 0.871
- interaction score [23]: -3.07
- interaction score [24]: -0.951
- interaction score [25]: 1.18
- interaction score [26]: 0.991
- interaction score [27]: 0.768
- interaction score [28]: 0.204
- interaction score [29]: 0.704
- interaction score [30]: 1.05
- interaction score [31]: -0.259
Binder: DKNQELEKEIEELERKIWELEKKNQELKR [4H3112-bH]

- interaction score [32]: 1.38
- interaction score [33]: -0.185
- interaction score [34]: -0.752
- interaction score [35]: -0.701
- interaction score [36]: -0.815
- interaction score [37]: -0.399
- interaction score [38]: -0.51
- interaction score [39]: -1.79
- interaction score [40]: -0.479
- interaction score [41]: 1.16
- interaction score [42]: -0.364
Binder: DKIQELKKENEELERENWELKKKIQELER [4H2717-bH]

- interaction score [32]: 0.256
- interaction score [43]: -0.0624
- interaction score [7]: -0.167
- interaction score [44]: -0.711
- interaction score [34]: -0.305
- interaction score [45]: -1.06
- interaction score [46]: -0.709
- interaction score [47]: -0.423
- interaction score [36]: 0.141
- interaction score [39]: -2.8
- interaction score [40]: 1.3
- interaction score [48]: -1.48
- interaction score [42]: 0.219
- interaction score [49]: 0.203
- interaction score [50]: 0.0179
Binder: DKNQELEKENEELKREIWELKKKIQELER [4H3277-bH]

- interaction score [51]: -2.58
- interaction score [52]: -2
- interaction score [53]: -2.28
- interaction score [54]: -2.29
- interaction score [55]: 2.05
- interaction score [56]: -2.73
- interaction score [57]: -2.29
Binder: DEIAALEAKIAALKYENAALEAENAALEG [O3]

Binder: KIAALKAEIAALEYKNAALKAKNAALKG [O4]
- interaction score [58]: -2.63
- interaction score [59]: -2.42
- interaction score [60]: -2.65
- interaction score [61]: -2.71
- interaction score [62]: -2.75
- interaction score [63]: -2.68

- interaction score [2]: -0.797
- interaction score [4]: -0.522
- interaction score [8]: -1.09
- interaction score [9]: -1.16
- interaction score [10]: -0.583
- interaction score [11]: -0.899
- interaction score [13]: 0.0268
- interaction score [14]: -0.801
- interaction score [16]: -1.56
- interaction score [17]: -2.61
- interaction score [18]: -1.26
- interaction score [19]: -1.21
- interaction score [64]: 0
- interaction score [65]: -1.15
- interaction score [20]: -0.56
- interaction score [21]: -0.899
- interaction score [22]: -0.72
- interaction score [24]: -1.22
- interaction score [26]: -0.701
- interaction score [27]: -0.833
- interaction score [31]: -0.724
Binder: DKNQELEKEIEELKRKNWELEKEIQELER [4H3185-bH]
